Key:
[1] = system: phospho-STAT1,3,5 and phospho-ERK in TF-1 TpoR CALR^del52 cells; assay: Western blot of STAT/ERK signalling; type: cell-based, human; conditions: 10 or 20 μg/mL; 8 hours
Procedure: (§1) A. Cell extracts blotted for phospho-STAT5, total STAT5, phospho-ERK, total ERK and actin from TF-1 TpoR cells after incubation with 10 or 20 μg/mL 4D7 or IgG for 4 or 8 hours, in presence of TPO. The last line indicates TPO withdrawal. B. Similar experiment using TPO-independent TF-1 TpoR CALR^del61 cells. C. Similar experiment using TPO-independent TF-1 TpoR CALR^del52 cells at 8 hours. D. Fraction of apoptotic sub-Go population of TF-1 TpoR CALR^del61 cells after 48 hours of 4D7 or IgG treatment (n=3). E. Western blot showing caspase 3 cleavage occurring within 24 hours of TPO withdrawal in TPO dependent TF-1 TpoR cells. An increase in cleaved caspase 3 is observed after 48 hours of treatment with 20 μg/mL 4D7 in TF-1 TpoR CALR^del61 and TF-1 TpoR CALR^del52 cells. F. Western blot of TpoR immunoprecipitation under non-reducing conditions showing associated CALR 50 kDa monomers and 100 kDa dimers (arrowheads) present only in TF-1 TpoR CALR^del61 disrupted by 8 hour treatment with 20 μg/mL 4D7 but not PBS or 20 μg/mL IgG. CALR monomers & dimers are detectable by polyclonal anti-wild type CALR or anti-mutant CALR monoclonal antibodies. Arrowheads, detected mutant CALR protein: asterisk, non-specific bands. G. Proposed model for the mechanism of action of 4D7 on mutant CALR. In the active form, mutant CALR dimers bound to TpoR form a constitutively activate receptor complex which is disrupted by 4D7 with blockade in STAT and ERK signalling. (Adapted from Masubuchi et al. (2020), Rivera et al (2021)). […]
(§2) A. Cell extracts blotted for phospho-STAT1, total STAT1, phospho-STAT3, total STAT3 and actin from TF-1 TpoR cells after incubation with 10 or 20 μg/mL 4D7 or IgG for 4 or 8 hours as indicated. […] Cells were harvested and fixed and stained with propidium iodide and their DNA contents were analysed. […] E. Western blot showing specific co-immunoprecipitation of mutant CALR^del61 cells with TpoR anti-FLAG antibody under reducing conditions detected by total and mutant specific CALR antibodies. Arrowheads represent detected CALR protein. […]

[2] = system: phospho-STAT1,3,5 and phospho-ERK in TF-1 TpoR CALR^del61 cells; assay: Western blot of STAT/ERK signalling; type: cell-based, human; conditions: 10 or 20 μg/mL; 4 and 8 hours
Procedure: as §1, §2

[3] = system: TF-1 TpoR CALR^del61 cells in NSG mice; assay: Bone marrow engraftment xenograft model; type: in vivo
Procedure: All procedures were approved by the South Australian Health and Medical Research Animal Ethics Committee (Protocol SAM21-018). Bone marrow engraftment model: 4-6 week old NSG mice were x-ray irradiated with 150 cGy and 5×10^5 cells (TF-1-TpoR CALR^del61) or 5×10^4 cells (100 nM ruxolitinib resistant TF-1 TpoR CALR^del61) were intravenously injected into mice. […] Tail vein bleeds were taken at 3 weeks and analysed via flow cytometry to determine human leukaemia content in the peripheral blood. Leukemic cells were PI-, mCD45.1, hCD33+, zsGreen+. Mice were monitored daily and euthanized once clinical symptoms were observed. At the time of euthanasia, cardiac puncture was performed to obtain both peripheral blood and serum for analysis. Additionally, bone marrow from both femurs, spine and spleens were analysed for leukemic content as detailed above. Chloroma model: 4-6 week old NSG mice were anaesthetised by isoflurane inhalation and shaved on the left back/flank and 1×10^7 cells were injected into the mice. Cells were pre-treated with 20 μg/mL IgG or 4D7 for 1 hour prior to injection. […] Tumour progression was assessed through caliper measurements every 2 days. Mice were euthanised once tumours began to impede movement, show signs of ulceration or if any measurement of the tumour exceeded 30 mm (length, width or depth).

B1: 4D7: rat monoclonal IgG2a antibody against the mutant CALR neoepitope; VH SEQ ID NO: 5, VL SEQ ID NO: 7 (antibody, listed as Rattus rattus, V domains shown)
VH: QVQLQQSGAELAKPGSSVKISCKASGYTFTNYDMSWIKQRPGQALEWIGAINPGNGVTDYNEKFRGKATLTVDKSSSTAFMQLSSLTPEDTAVYHCAREYRDNYGYFDYWGQGVMVTVSS
VL: DIVLTQTPVSLSVTLGDQASISCRSSQSLEYSDGYTYLDWFLQKPGQSPQLLIYEVSSRFSGVPDRFIGRGSGTDFTLKISRVEPEDLGVYYCFQATHDPFTFGSGTKLEIK
- constitutive factor-independent phospho-STAT1,3,5 and phospho-ERK [1]: blockade
- constitutive factor-independent phospho-STAT1,3,5 and phospho-ERK [2]: blockade
- peripheral blood engraftment of human CD33+ myeloid cells ([3]; 3 weeks, 12.5 mg/kg twice weekly i.p. starting day 7, P=0.01): 0.04%
- survival, log-rank hazard ratio ([3]; 4D7 vs IgG, 12.5 mg/kg twice weekly, P=0.003): 0.24

Source: US20250236667A1, “ANTIBODIES TO MUTANT CALRETICULIN AND USES THEREOF” (CENTRAL ADELAIDE LOCAL HEALTH NETWORK INC, priority 2021, published 2025)
